Measured values from PMC2831815.

B1: TraK (Aeromonas veronii) (protein)
chain: MKNKAGFIGFLLFVFALCSVGSLYLGGYMLLKKSGVDMSALSIHTFFDVNRDLGGDPAFKKIIAWGWIGFAIPYAIFLFFVGVMLVGLMPKKVIYGDGRLATPMDLARSGFFPKKGDKHKQPPILIGKMFKGRFKNSYIYFYGQQFLILYAPTRSGKGVGIVIPNCVNYPESIVVLDIKLENFFLSAGYRKEQGQECFLFSPDGFADNLDAARRGEIKSHRFNPLDYVSRSPLQRESDLKKIAAILYPTSGGENDTWNESASSLWIGLALYLLDMEKVEPKTKVAVSQIIKISVPGSGDPLEKWMELTIKAKSDILGDDTKQYFRKFMSAADRTRASILVNFNNGVAVFSNPITAAATDSSDFDLRDLRKKKMSVYLGLSPNSLVTHAKLVNLFFSLLVNENTKELPENNPELKYQCLLILDEFTSMGRVEIIQKAVGFTAGYNIRFMFILQNKGQLEDDKMYGKEGAETFIENTGVELYYPPKSVNDTAKAISEKIGVRDEKVSSISRSSQSGKTSRSKSTSTEKRAVLLPDEIVSLRDHKNKGGNMAVREIILSDFCRPFIANKIVYFEEPIFMERVNYARKNPIEIPFLFNEDERKTFTCDSISLGSVMKKPDLDNHDQADKSE
B2: TraE (Aeromonas veronii) (protein)
chain: MKQIKQTPLKKGRTEPVMRMYPDYQFHVSDNVVFTADKKALASIAIEGMPFESISDGVLESDFDSIKNFLVNMGKDGDVYLWTHLVKEKVSLDEEYHFKSDFLNRFSNQYTELFRGSNFFKSTYYLTFGIKYSNISEAIERLDEVIHQAKAVLGKYGAHVLTVDQNRVSGVADYLHLLLNKSHAEIPLSINPISSSIADSEWYFGYDSLELRNNEAEEKKFATNYVVKDFPMFTELGQWDFLLRLPYEFIITQSFIYEAPTKTLKEIDAQLNKMGSAGDAAENQQDELVLGKEVVTSGITLFGSYHCVLTVFGRTADEARKNGIKVSSEFVSAGKGFRFIRTNSAGAHCYFSHMPMNKIRPLATRRTITNLACTFSLHNYSHGKKRGNPIGDGTAIMPLKTVADGLYWFNTHYSEPGRDVRGQKIAGHAMILGATGAGKTTFEGAAAGFLQRFDPYMFVVDFNRSTELFVRAYGGSYFTLKEGEYTGLNPFQICDLDDELAPRLVQFLKSYVKTLAYDQSGKPCSDAQAEELAKAVDATMLLPREMRRLSTLLSRISDPELKIRLAKWCGAGQYAWAVDSPRNTFNPMDFKKVGFDTTVILEKTKDGVHPACEPLLAILFFYKSLMQREGQLMLSIIEEFWMPANFPLTQAMIKSALKAGRMKGEMMWLTSQSPEDAIYCEIFPALVQQTATKILLPNPDADLEGYKKIGLTVKEFDRLKKLGKESRTMLIKQSGSSCFAKMDLYGFDDFLPIISGSMEGITLCEKVRAELGTDNPDIWIPEFLKQLREE

Substrate: Nc1ncnc2c1ncn2[C@@H]1O[C@H](COP(=O)(O)OP(=O)(O)OP(=O)(O)O)[C@@H](O)[C@H]1O
Assay: purified protein
Details: 10 mM MgCl2, pH 7.6, 37 °C, ATP 0.025-3.5 mM

Row | Protein | Km (Discussion prints 0.96 mM instead) | Km
1 | B1 | 920 µM | –
2 | B2 | – | 550 µM
